Target: T1, nine-person peanut-specific IgE antibody pool
T1 construct: polyclonal human serum IgE; also called pooled serum; peanut-positive serum pool
Assay: competitive ELISA inhibition, pooled serum IgE on coated crude peanut

IC50: 5.5 ng/mL
B1: Ara h 1 (purified from peanut) (other)
chain: KSSPYQKKTENPCAQRCLQSCQQEPDDLKQKACESRCTKLEYDPRCVYDPRGHTGTTNQRSPPGERTRGRQPGDYDDDRRQPRREEGGRWGPAGPREREREEDWRQPREDWRRPSHQQPRKIRPEGREGEQEWGTPGSHVREETSRNNPFYFPSRRFSTRYGNQNGRIRVLQRFDQRSRQFQNLQNHRIVQIEAKPNTLVLPKHADADNILVIQQGQATVTVANGNNRKSFNLDEGHALRIPSGFISYILNRHDNQNLRVAKISMPVNTPGQFEDFFPASSRDQSSYLQGFSRNTLEAAFNAEFNEIRRVLLEENAGGEQEERGQRRWSTRSSENNEGVIVKVSKEHVEELTKHAKSVSKKGSEEEGDITNPINLREGEPDLSNNFGKLFEVKPDKKNPQLQDLDMMLTCVEIKEGALMLPHFNSKAMVIVVVNKGTGNLELVAVRKEQQQRGRREEEEDEDEEEEGSNREVRRYTARLKEGDVFIMPAAHPVAINASSELHLLGFGINAENNHRIFLAGDKDNVIDQIEKQAKDLAFPGSGEQVEKLIKNQKESHFVSARPQSQSQSPSSPEKESPEKEDQEEENQGGKGPLLSILKAFN
modifications: glycoprotein (PAS positive); fluorescein-labelled tracer in Example 6
notes: Native allergen from peanut extract; Forms trimers and hexamers
